Source: publication PMC11323494, “A network of acetyl phosphate-dependent modification modulates c-di-AMP homeostasis in Actinobacteria” (mBio, 2024)

Tested on: DasR K78Q (Saccharopolyspora erythraea NRRL2338)
Experiment: BLI
Conditions: BLI: 10 mM HEPES pH 8.0, 2 mM MgCl2, 0.1 mM EDTA, 200 mM KCl (running buffer + 10 µg/mL BSA, 0.02% Tween-20), SA sensor, temperature not stated; EMSA: 5 nM …

disA promoter probe
Kd: 20 µM
